Substitutions are numbered along the chain they refer to. Names may count otherwise.
T1: CD134 expressed on the cell surface of HT1080_OX40 cells (human, UniProt P43489 29-277)
T1 sequence (looked up): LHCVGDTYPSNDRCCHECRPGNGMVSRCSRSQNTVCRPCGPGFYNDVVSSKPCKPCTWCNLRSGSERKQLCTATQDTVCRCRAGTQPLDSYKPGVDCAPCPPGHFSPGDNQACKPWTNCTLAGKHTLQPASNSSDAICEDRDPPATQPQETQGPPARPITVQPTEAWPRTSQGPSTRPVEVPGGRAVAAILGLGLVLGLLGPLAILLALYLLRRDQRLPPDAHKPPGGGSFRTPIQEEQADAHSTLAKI

T2: CD27 expressed on the cell surface of HT1080_CD27 cells (human, UniProt P26842 20-260)
T2 sequence (looked up): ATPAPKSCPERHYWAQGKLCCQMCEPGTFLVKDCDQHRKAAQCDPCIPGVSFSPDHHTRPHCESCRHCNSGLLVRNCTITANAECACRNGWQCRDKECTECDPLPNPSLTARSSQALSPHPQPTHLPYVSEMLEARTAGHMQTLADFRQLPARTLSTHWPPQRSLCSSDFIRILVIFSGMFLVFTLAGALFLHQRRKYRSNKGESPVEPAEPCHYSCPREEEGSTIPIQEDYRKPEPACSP

T3: CD134 protein (His-tagged, Sino Biological Inc. 10481-H08H) (human, UniProt P43489 29-216)
T3 construct: bought protein coated on ELISA plates; also called OX40; TNFRSF4; not shown: His tag
T3 sequence (looked up): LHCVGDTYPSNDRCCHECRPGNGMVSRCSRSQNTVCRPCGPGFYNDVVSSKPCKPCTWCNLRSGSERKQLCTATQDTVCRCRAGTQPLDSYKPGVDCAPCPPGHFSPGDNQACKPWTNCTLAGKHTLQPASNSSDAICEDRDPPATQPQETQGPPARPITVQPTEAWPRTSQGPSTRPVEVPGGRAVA

T4: CD27 protein (His-tagged, Sino Biological Inc. 10039-H08B1) (human, UniProt P26842 20-192)
T4 construct: bought protein coated on ELISA plates; also called TNFRSF7; not shown: His tag
T4 sequence (looked up): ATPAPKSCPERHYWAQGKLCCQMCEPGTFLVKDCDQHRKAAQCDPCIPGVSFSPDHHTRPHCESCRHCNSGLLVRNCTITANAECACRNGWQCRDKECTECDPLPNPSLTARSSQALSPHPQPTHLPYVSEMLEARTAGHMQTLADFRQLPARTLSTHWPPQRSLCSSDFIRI

B1: P018.S.04.A.F05 (antibody, V domains shown)
VH: QSVEESGGRLVTPGTPLTLTCTVSGIDLSSYTMGWVRQAPGKGLEYIGIIGTSGTTYYSSWAKGRFTISKTSTTVDLKITSPTTEDTATYFCARLGDDYGDFHFNLWGQGTLVTVSS
VL: DLVMTQTPASVSEPVGGTVTIKCQASQNIGNYLAWYQQKPGQPPKLLIYAASNLASGVSSRFKGSGSGTEYTLTISDLESADAATYYCQCTYYDSTYFAFGGGTEVVVK
notes: V regions on human Ig constant parts; also called AB134_12
B2: P018.S.03.A.E03 (antibody, V domains shown)
VH: QSVEESGGRLVTPGTPLTLTCTVSGFSLSTYGMSWVRQAPGKGLEWIGIIDAGDSPYYASWVKGRFTISKTSTTVDLKITSLTTEDTATYFCARIAGSNHGPFSLWGPGTLVTVSS
VL: DVVMTQTPASVSEPVGGTVTINCQASEFISNYLAWYQQKPGQPPKLLIYGASTLASGVPSRFSGSGSGTQFTLTISDLESDDAATYYCQCTAYGSGYVGFGGGTEVVVK
notes: V regions on human Ig constant parts; also called AB134_4
B3: P018.S.12.A.G05 (antibody, V domains shown)
VH: B2 VH with A52G, V62A, K63E, L82P, S104D
VL: B2 VL with S63K, Q70D, D81A, G96S
notes: V regions on human Ig constant parts; also called AB134_87
B4: P018.S.04.A.G05 (antibody, V domains shown)
VH: QSVEESGGRLVTPGTPLTLTCTVSGFSLSTYYMSWVRQAPGKSLEWIGCIHGDDGSTWYASWVQGRFTISKASTTVDLQIASPTTEDTATYFCARGLPYWPNDGDFNLWGQGTLVTVSS
VL: TQVLTQTPSPVSAAVGGTVSISCQSSQSVYNNNWLSWFQQKPGQPPKLLVYGASTLASGVPSRFKGSGSGTQFTLTISDLESDDAATYYCAGGYYTTSDNGFGGGTEVVVK
notes: V regions on human Ig constant parts; also called AB134_14
B5: P018.S.05.A.F05 (as anti-CD27 antibody) (antibody, V domains shown)
VH: QSVEESGGRLVTPGTPLTLTCTVSGFSLSNYYMTWVRQAPGKGLEYIGIIGSGVSTYYANWAKGRFTISKASSTTVDLKMTSPTTEDTATYFCARDMYVGNWGDWGLWGQGTLVTVSS
VL: AYDMTQTPASVEVAVGGTVTIKCQASQSISNNLNWYQQKPGQPPKLLIYSVSTLASGVPSRFKGSGSGTDYTLTISGVESVDAATYYCQQDYRIGDLDSAFGGGTEVVVK
notes: V regions on human Ig constant parts; also called AB27_92
B6: P018.S.08.A.G02 (antibody, V domains shown)
VH: QSVEESGGRLVTPGTPLTLTCTVSGFSLSTYAMSWVRQAPGKGLEWIGMNTRSGIIYYASWAKGRFTISKTSTTVHLKITSPTTEDTATYFCARDLYADVSGYYLGLWGPGTLVTVSS
VL: AQVLTQTPSSVSAAVGGTVTINCQASQSLYNNKNLAWYQQKPGQPPKLLIYYASTLASGVSSRFKGSGSGTQFTLTISDLESDDAATYYCQGEFICSSADCVVFGGGTAVVVK
B7: P018.S.10.A.A03 (antibody, V domains shown)
VH: QSLEESGGRLVTPGTPLTLTCTVSGIDLSSYAMGWVRQAPGKGLEWIGTISTISNTYYASWANGRFTISKTSTTVDLKMTSLTASDTATYFCARGASNTINDYFNLWGQGTLVTVSS
VL: DIVMTQTPASVSEPVGGTVTIKCQASQSVGNYLAWYQQKPGQPPKLLIYDASNLASGVSSRFKGSGFATEFILTISDLESTDAATYYCHSYVYSSGNVYNGFGGGTEVVVK
notes: V regions on human Ig constant parts; also called AB27_163
B8: P018.S.09.A.A02 (antibody, V domains shown)
VH: QSVEESGGRLVTPGTPLTLTCTASGFSLSNFYMSWVRQAPGKGLEWIGIISTGGSAYYASWAKGRFTSSKTSTTVDLQITSPTTEDTATYFCARGSGTDGAWLYYGIDLWGPGTLVTVSS
VL: DVVMTQTPASVEAAVGGTVTIKCQASENIGHALAWYQQKPGQPPKLLIYRTSTLASGVPSRFSGSGSGTQFSLTISDLDSADAATYFCQINYGGGSGGYFAFGGGTEVVVK
notes: V regions on human Ig constant parts; also called AB27_143
B9: P018.S.10.A.F04 (antibody, V domains shown)
VH: QSVEESGGRLVTPGTPLTLTCTASGFYLSSHYMSWVRQAPGKGLEWIGIIYATGIASYANWAKGRFTISKTSTTVSLKMTSPTTEDTATYFCARYDSQDYYGYGNLWGPGTLVTVSS
VL: AYDMTQTPASVEVAVGGTVTIKCQASQNIYNNLAWYQQKPGQRPKLLIYRASTLASGVSSQFKGSGSGTEYTLTISGVESADAATYYCQQGYSVHDVYNTFGGGTEVVVK
notes: V regions on human Ig constant parts; also called AB27_180
B10: P018.S.10.A.B03 (antibody, V domains shown)
VH: QSLEESGGRLVTPGTPLTLTCTASGFSLSSYDMGWVRQAPGKGLEWIGIISSSGSTYYASWAKGRFTISKTSSTTVDLKMTSLTTEDTATYFCARTSLDGNLWGQGTLVTVSS
VL: AFEMTQTPSSVSEPVGGTVTIKCQASQSIYNYLSWYQQKPGQPPKLLIYDASALASGVPSRFKGSGSGTDFTLTISDLESADAATYYCQQDYSVSDVDNSFGGGTEVVVK
notes: V regions on human Ig constant parts; also called AB27_168
B11: P018.S.01.A.H06 (antibody, V domains shown)
VH: QEQLKESGGRLVKPDETLTITCTASGFSLSRYDMSWVRQAPGKGLEWIGSIWSDGDTDYANWAKGRFTISKTSTTVDLKITSPTTEDTATYFCARGYTAWSLWGPGTLVTVSS
VL: ALVMTQTPSPVSAAVGGTVTISCQSSESVVGNNALSWFQQKPGQPPKLLNYQASTLASGVSSRFSGSGSGTQFTLTISGVQSDDAATYYCQGTYYSSGWYFAFGGGTEVVVK
B12: P018.S.10.A.C02 (antibody, V domains shown)
VH: QSVEESGGRLVTPGTPLTLTCTVSGIDLSNYAMSWVRQTPGKGLEWIGAIGIGGNTYYASWAKGRFTISRTSTMVDLKVASPTPEDTATYFCARHAGAGVVNWLDLWGQGTLVTVSS
VL: DVVMTQTPASVSEPVGGTVTIKCQASQSIGSNLAWYQQKPGQPPKLLIYAASDLASGVPSRFSGSGSGTEFTLTISGVQSDDAATFYCQTYGSGSFSSFNLFGGGTEVVVK
notes: V regions on human Ig constant parts; also called AB27_171
B13: P018.S.09.A.A06 (antibody, V domains shown)
VH: QEQLKESGGGLVQPGESLTLTCTASGFSLSSYYMSWVRQAPGKGLEWIGMISTGGSAYYANWARGRFTISRTSTTVDLKVTSLTTEDTATYFCARGWRYEDLWGQGTLVTVSS
VL: AQVLTQTPSPVSAAVGSTVTINCQSSQTVYNNNYLAWYQQKPGQPPKLLIYDASNLASGVSSRFSGSGSGTQFTLTISDLESDDAATYYCQGTYYDNAWYHTFGGGTEVVVK
notes: V regions on human Ig constant parts; also called AB27_146

Biological target: T1, CD134 expressed on the cell surface of …
Assay: cell-based or functional assay
Throughout, for Functional assay Cross-linked by F(ab′)2 fragment IL-8: test concentration or dose not given here.
Throughout, for Functional assay IL-8: test concentration or dose not given here.

Functional assay Cross-linked by F(ab′)2 fragment IL-8 [abs. corr.] | Functional assay IL-8 [abs. corr.] | Binder
2.4 | 0.181 | B1
2.54 | 0.314 | B2
2.19 | 0.13 | B3
2.41 | -0.022 | B4

Biological target: T2, CD27 expressed on the cell surface of …
Assay: cell-based or functional assay

EC 50 (IL-8 release, cross-linked) [µg/mL] | Binder
0.376 | B5
1.94 | B6
0.513 | B7
0.144 | B8
1.27 | B9
1.94 | B10
2.35 | B11
0.414 | B12
0.387 | B13

Biological target: T1, CD134 expressed on the cell surface of …
Assay: HT1080_OX40 cells, imaging; note: test concentration or dose not given here

Cellular binding assay [RFU] | Binder
368 | B1
419 | B2
570 | B3
451 | B4

Biological target: T2, CD27 expressed on the cell surface of …
Assay: HT1080_CD27 cells, imaging; note: test concentration or dose not given here

Cellular binding assay [RFU] | Binder
11 | B5
198 | B7
155 | B8
133 | B9
19 | B10
238 | B12
113 | B13

Biological target: T2, CD27 expressed on the cell surface of …
Assay: cell-based or functional assay
Remark: another data set of the same source

Functional assay Cross-linked by F(ab′)2 fragment IL-8 [abs. corr.] | Functional assay IL-8 [abs. corr.] | Binder
2.21 | 0.189 | B5
2.06 | 1.02 | B7
2.46 | 0.839 | B8
2.32 | 0.273 | B9
2.07 | -0.032 | B10
2.28 | 0.631 | B12
2.25 | 2.19 | B13

Biological target: T3, CD134 protein (His-tagged, Sino …)
Assay: ELISA, coated His-tagged CD134; note: test concentration or dose not given here

ELISA [abs. corr.] | Binder
2.44 | B1
2.72 | B2
2.04 | B3
2.87 | B4

Biological target: T4, CD27 protein (His-tagged, Sino …)
Assay: ELISA, coated His-tagged CD27; note: test concentration or dose not given here

ELISA [abs. corr.] | Binder
2.31 | B5
2.81 | B7
2.95 | B8
2.89 | B9
2.24 | B10
2.9 | B12
3.09 | B13

Biological target: T1, CD134 expressed on the cell surface of …
Assay: cell-based or functional assay
Remark: another data set of the same source

EC 50 (IL-8 release, cross-linked) [µg/mL] | Binder
0.225 | B1
0.529 | B2
0.745 | B3
0.669 | B4
